Numbering of substitutions follows the chain as printed.
Target: T1, NtHY5 (6xHis-HY5) (Nicotiana tabacum, UniProt A0A1S3YJY6 1-158)
T1 sequence: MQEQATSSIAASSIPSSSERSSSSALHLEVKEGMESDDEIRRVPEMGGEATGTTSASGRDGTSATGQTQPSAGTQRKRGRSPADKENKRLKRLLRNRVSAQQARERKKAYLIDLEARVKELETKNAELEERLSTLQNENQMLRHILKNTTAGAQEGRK
Experiment: EMSA

B1: NtMYB12 P2 (G-BOX II) (dsDNA)
DNA 1: AGTCAACTTTGCAACGTAAAAGTCCACACA
DNA 2: TGTGTGGACTTTTACGTTGCAAAGTTGACT
  binding result: binds

B2: NtQPT Mut P1 (dsDNA)
DNA 1: CATAAATAAAATTCATTCAGCTACTAAAAC
DNA 2: GTTTTAGTAGCTGAATGAATTTTATTTATG
  binding result: no binding

B3: NtPMT Mut P1 (G-mut I) (dsDNA)
DNA 1: CAGTCTAACCATGATTAATGTAATGATTTT
DNA 2: AAAATCATTACATTAATCATGGTTAGACTG
  binding result: no binding

B4: NtODC Mut P1 (dsDNA)
DNA 1: ATCTGATCACCTAATATCACCAAGAAAATA
DNA 2: TATTTTCTTGGTGATATTAGGTGATCAGAT
  binding result: no binding

B5: NtPMT P1 (G-BOX I) (dsDNA)
DNA 1: CAGTCTAACCATGCACGTTGTAATGATTTT
DNA 2: AAAATCATTACAACGTGCATGGTTAGACTG
  binding result: binds

B6: NtPMT Mut P2 (G-mut II) (dsDNA)
DNA 1: TACTGTTTCCGCAATCTTCTCTTCATCAGG
DNA 2: CCTGATGAAGAGAAGATTGCGGAAACAGTA
  binding result: no binding

B7: NtPMT P2 (G-BOX II) (dsDNA)
DNA 1: B6 DNA 1 with T15C, C16G, T18G
DNA 2: B6 DNA 2 with A13C, G15C, A16G
  binding result: binds

B8: NtQPT P1 (G-BOX I) (dsDNA)
DNA 1: CATAAATAAAACGTGTTCAGCTACTAAAAC
DNA 2: GTTTTAGTAGCTGAACACGTTTTATTTATG
  binding result: binds

B9: NtODC P1 (G-BOX I) (dsDNA)
DNA 1: B4 DNA 1 with T15C, A16G, C18G
DNA 2: B4 DNA 2 with G13C, T15C, A16G
  binding result: binds

B10: NtMYB12 P1 (G-BOX I) (dsDNA)
DNA 1: AACTTGAAATAATACGTTAAAAGATAAAA
DNA 2: TTTTATCTTTTAACGTATTATTTCAAGT
  binding result: binds

Reference: article doi:10.1101/2022.01.05.475064
